Laboratory results as given in PMC11033527, “Inhibition of SARS-CoV-2 nucleocapsid protein–RNA interaction by guanosine oligomeric RNA”.

Columns and labels:
[1] = target: SARS-CoV-2 nucleocapsid protein full length (NP) (SARS-CoV-2, UniProt P0DTC9 1-419)
[2] = target: T1, SARS-CoV-2 nucleocapsid N-terminal RNA-binding domain (NTD) (SARS-CoV-2, UniProt P0DTC9 46-174); experiment: EMSA competition; vs 32P-probe RNA; n=7; settings: protein: recombinant; tags: His-tag (pET-15b)
[3] = target: T1, SARS-CoV-2 nucleocapsid N-terminal …; experiment: EMSA competition; vs 32P-probe RNA; n=6; settings: protein: recombinant; tags: His-tag (pET-15b)
[4] = target: T1, SARS-CoV-2 nucleocapsid N-terminal …; experiment: EMSA competition; vs 32P-probe RNA; n=3; settings: protein: recombinant; tags: His-tag (pET-15b)
[5] = target: T1, SARS-CoV-2 nucleocapsid N-terminal …; experiment: EMSA; 800 ng NTD, 5 ng RNA; settings: protein: recombinant; tags: His-tag (pET-15b); label: 32P-CTP internal
[6] = target: T1, SARS-CoV-2 nucleocapsid N-terminal …; experiment: EMSA competition; vs 32P-probe RNA; n=4; settings: protein: recombinant; tags: His-tag (pET-15b)

CGAGGCCACGCGGAGUACGAUCGAGUGUACAG (ssRNA) [FITC-probe RNA (32-base)]
binding result [1]: binds

CCGGCG (ssRNA) [In-1]
IC50 [2]: 34.3 ± 27.8 µM

CCAGCG (ssRNA) [mIn-1 (mIn-1-1)]
IC50 [3]: 3.48 ± 1.46 µM

AAAAAA (ssRNA) [A6]
IC50 [4]: 22.9 ± 16.4 µM

GGGGGGGGGGGG (ssRNA) [G12]
binding result [1]: binds

GGGCGAGGCCACGCGGAGUACGAUCGAGUGUACAG (ssRNA) [32P-probe RNA (T7 transcript)]
binding result [5]: binds

GGGGGG (ssRNA) [G6]
IC50 [6]: 620 ± 70 nM
